Blank lines part the entries; values can stand above or below the substance they belong to.
Assays:
[1] = molecular target: HEK-293 clones transfected with hMC1R, hMC3R or hMC5R; assay: radioligand binding with 125I-NDP-α-MSH on transfected HEK-293 clones
[2] = molecular target: murine MSH receptor (mouse) (UniProt Q01727); assay: competition binding of cold ACTH against 125I-ACTH1-39 on Cloudman M-3 melanoma cells
[3] = molecular target: rat MC3-R (rat) (UniProt P32244); assay: cell-based or functional assay
Sequence of rat MC3-R (rat) (P32244 whole entry): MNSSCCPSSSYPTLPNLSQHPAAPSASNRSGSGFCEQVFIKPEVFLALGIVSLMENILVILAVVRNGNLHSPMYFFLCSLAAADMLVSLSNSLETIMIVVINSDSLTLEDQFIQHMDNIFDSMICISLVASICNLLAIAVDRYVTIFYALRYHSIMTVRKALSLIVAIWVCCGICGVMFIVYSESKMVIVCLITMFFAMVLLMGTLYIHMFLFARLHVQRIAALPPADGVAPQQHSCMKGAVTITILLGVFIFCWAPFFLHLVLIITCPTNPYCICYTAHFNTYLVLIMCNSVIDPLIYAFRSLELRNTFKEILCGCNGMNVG

Sequence of adrenocorticotropic hormone (unlabelled) (peptide) (P01189 138-176): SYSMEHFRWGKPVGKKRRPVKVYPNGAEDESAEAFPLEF
Sequence of murine MSH receptor (mouse) (Q01727 whole entry): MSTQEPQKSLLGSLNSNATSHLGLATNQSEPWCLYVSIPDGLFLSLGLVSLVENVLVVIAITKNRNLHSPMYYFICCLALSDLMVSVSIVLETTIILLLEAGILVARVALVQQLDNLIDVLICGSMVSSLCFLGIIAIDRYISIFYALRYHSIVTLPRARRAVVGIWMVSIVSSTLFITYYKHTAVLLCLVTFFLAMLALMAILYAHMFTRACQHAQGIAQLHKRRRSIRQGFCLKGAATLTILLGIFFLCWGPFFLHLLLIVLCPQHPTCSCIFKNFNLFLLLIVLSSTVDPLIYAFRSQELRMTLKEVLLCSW

Ki [1]: 0.11 to 0.58 nM
Substance: 125I-labeled Nle,D-Phe (NDP)-α-MSH (from UniProt P01189 138-150) (peptide)

Kd [2]: 63 nM
Substance: adrenocorticotropic hormone (unlabelled) (peptide)

EC50 for adenylyl cyclase activation, rat MC3-R in 293 cells, α-MSH alone [3]: 4.2 nM
EC50 for adenylyl cyclase activation, rat MC3-R in 293 cells, α-MSH plus 0.7 nM murine agouti [3]: 4.1 nM
Substance: α-melanocyte-stimulating hormone (from UniProt P01189 138-150) (peptide)
